Among the data in doi:10.1101/2025.08.14.670363 are dwell time, dwell time (small particles of the XCAP1-actin complex preparation) and stoichiometry N values, retold here.

The target of assay [1] is Rabbit skeletal muscle actin filaments (rabbit) (UniProt P68135). In words: high-speed atomic force microscopy; F-actin held on a mica-supported lipid bilayer (DPPC:DPTAP:biotin-cap-DPPE 89:10:1); actin-free XCAP1 or XCAP1-actin complex injected at 20-100 nM; 30 mM KCl, 10 mM imidazole-HCl pH 7.0, 1 mM MgCl2, 0.5 mM EGTA, 10 mM DTT, 10 % glycerol, 0.2 mM ATP; room temperature; dwell time of single particles.

For assay [2], the target named is actin-free Xenopus cyclase-associated protein 1 (Xenopus laevis). The assay is described as above.

What is called stoichiometry N is a count of units in the complex or per binding partner. Regarding “actin-free Xenopus cyclase-associated protein 1 (natural protein)”, in assay [1], the dwell time is 0.2 s, the dwell time (small particles of the XCAP1-actin complex preparation) worked out at 0.2 s, the dwell time at the filament end worked out at 0.24 s and the dwell time at the filament side came to 0.2 s. In assay [2], this substance had a stoichiometry N of 4.
